# Test results reported in paper PMC3553976.
# Molecular target: U2AF65 (UniProt P26368)
# Experiment: NMR binding data
# Conditions: reference: non-phosphorylated SF1 construct; sites S80,S82
substance,measurement,value
splicing factor 1 (SF1) (from UniProt Q15637) KIS-phosphorylated SF1 construct,binding against the reference,same
